B1: SH3 and multiple ankyrin repeat domains protein 2 (Rattus norvegicus (Rat)), Q9QX74-4 (parent)
chain: MMSVPGGGAATVMMTGYNNGRYPRNSLYSDCIIEDKTVVLQKKDNEGFGFVLRGAKADTPIEEFTPTPAFPALQYLESVDEGGVAWQAGLRTGDFLIEVNNENVVKVGHRQVVNMIRQGGNHLVLKVVTVTRNLDPDDTARKKAPPPPKRAPTTALTLRSKSMTAELEELVDKASVRKKKDKPEEIVPASKPSRTAENVAIESRVATIKQRPTSRCFPAASDVNSVYERQGIAVMTPTVPGSPKGPFLGLPRGTMRRQKSIDSRIFLSGITEEERQFLAPPMLKFTRSLSMPDTSEDIPPPPQSVPPSPPPPSPTTYNCPRSPTPRVYGTIKPAFNQNPVAKVPPATRSDTVATMMREKGMFYRRELDRFSLDSEDVYSRSPAPQAAFRTKRGQMPENPYSEVGKIASKAVYVPAKPARRKGMLVKQSNVEDSPEKTCSIPIPTIIVKEPSTSSSGKSSQGSSMEIDPQATEPGQLRPDDSLTVSSPFAAAIAGAVRDREKRLEARRNSPAFLSTDLGDEDVGLGPPAPRMQPSKFPEEGGFGDEDETEQPLLPTPGAAPRELENHFLGGGEAGAQGEAGGPLSSTSKAKGPESGPAAALKSSSPASPENYVHPLTGRLLDPSSPLALALSARDRAMQESQQGHKGEAPKADLNKPLYIDTKMRPSVESGFPPVTRQNTRGPLRRQETENKYETDLSKDRRADDKKNMLINIVDTAQQKSAGLLMVHTVDIPVAGPPLEEEEDREDGDTKPDHSPSTVPEGVPKTEGALQISAAPEPAAAPGRTIVAAGSVEEAVILPFRIPPPPLASVDLDEDFLFTEPLPPPLEFANSFDIPDDRAASVPALADLVKQKKSDTPQPPSLNSSQPANSTDSKKPAGISNCLPSSFLPPPESFDAVTDSGIEEVDSRSSSDHHLETTSTISTVSSISTLSSEGGESMDTCTVYADGQAFVVDKPPVPPKPKMKPIVHKSNALYQDTLPEEDTDGFVIPPPAPPPPPGSAQAGVAKVIQPRTSKLWGDVTEVKSPILSGPKANVISELNSILQQMNRGKSVKPGEGLELPVGAKSANLAPRSPEVMSTVSGTRSTTVTFTVRPGTSQPITLQSRPPDYESRTSGPRRAPSPVVSPTELSKEILPTPPSAAAASPSPTLSDVFSLPSQSPAGDLFGLNPAGRSRSPSPSILQQPISNKPFTTKPVHLWTKPDVADWLESLNLGEHKETFMDNEIDGSHLPNLQKEDLIDLGVTRVGHRMNIERALKQLLDR

Variants of: B1
Details: with cftr_mouse Cftr
In the case of H109R, the “effect of a mutation on the interaction” value is reported as “disrupting interaction”.
For H109Q, the “effect of a mutation on the interaction” value was “with no effect”.
For H109A, the “effect of a mutation on the interaction” value was “disrupting interaction”.
